According to patent publication US5238920A, “Pulmonary surfactant protein fragments” (Abbott Laboratories, priority 1989, dated 1993):
Several values for one entry are separate records, joined by “and”; a condition that tells them apart may be missing. Identical values can stand only once. No end group written: not given here.

Experiments:
Type in all cases: physicochemical
[1] = Dynamic surface tension versus compressed surface area, modified Wilhelmy balance-Langmuir trough; details: 675 ug phospholipid on trough at 445 sq. cm, peptide 0.5 mg/ml (2% of solids) in DPPC:PG:PA lipids; for Surface tension, Maximum: maximum recorded during seven complete cycles; for Surface tension, Minimum: minimum recorded during seven complete cycles
Source text: The dynamic surface tension lowering properties of the peptide/lipid admixtures were studied using a modified Wilhelmy surface Balance (Langmuir Trough). The instrument consists of an all Teflon trough and movable Teflon ribbon (dam) barrier system which completely contains and defines a variable surface area. Surface area was varied through the use of a constant rate reversible 3-phase motor to drive the Teflon barrier. A Cahn 2000 electrobalance (Cahn Instruments, Cerittos, Calif.) with a sandblasted 1 cm platinum plate and stainless steel hangdown wire was employed to determine the surface tension at the liquid-air interface. The entire apparatus was situated in a thermostated incubator set at 45° C. Surface area-surface tension measurements were made by adding 950 ml of 0.15 M NaCl to the trough. Subphase temperature was controlled during the measurements at 36°-38° C.
For each experiment 27 ul of peptide/lipid admixture was applied in a random array of 13 (.perspectiveto.2 ul) droplets to the surface of the temperature controlled subphase and allowed to spread spontaneously for 3 minutes. (The 27 ul application corresponds to 675 ug of phospholipid). The trough surface area was then cycled from a maximum (445 sq. cm) to a minimum (178 sq. cm) surface area and black to maximum at a cycling rate of 3 cycles/min (compression ratio 2.5:1). The dynamic surface tension vs surface area was recorded for 7 complete compression-expansion cycles for each application.

[2] = Adsorption (surface tension lowering), modified Wilhelmy surface balance; details: equilibrium adsorption after three (3) minutes spreading time; peptide 0.5 mg/ml (2% of solids)
Protocol: A procedures similar to that described by Notter, et al., Petaitric Res. 16, 515-519, (1982) was employed to determined the absorption rate in the absence of diffusion resistance. The modified Wilhelmy surface balance as described above was used. However, instead of using a Langmuir trough a round Teflon dish (5.1 cm diameter) was employed. The subphase, 70 ml of 0.15 M NaCl, was allowed to equilibrate to 37° C. in the incubator and was continuously stirred with a Teflon coated magnetic stirrer. An aliquot of the peptide/lipid fragment admixture containing 5 mg of total phospholipid was dispersed in 10 ml of 0.15 M NaCl by vortexing for 10 seconds. This dispersion was then added to the saline subphase. Surface tension lowering was monitoring using a strip chart recorder connected to the electro balance output.

[3] = Pulsating bubble surfactometer (PBS), surface tension at air-aqueous interface; details: after 5 minutes pulsation (100 cycles), 20 cycles/minute, 37 C, 1 mg/ml phospholipid in 0.15 M NaCl; peptide 2% of phospholipids
Protocol: The Pulsating Bubble Surfactometer (PBS). The PBS equipment (Electrtonetics, Buffalo, N.Y.) used was essentially equivalent to that described in detail by G. Enhorning, J. Appld, Physiol. 43, 198-203, (1977). Recordings were made of the pressure gradient across the wall of a small air bubble, communicating with ambient air by means of a narrow chimney stack, but otherwise entirely surrounded by a 40 ul volume of the peptide/lipid admixture. The admixture concentration employed for these studies was 1 mg/ml total phospholipid (0.02 mg/ml total peptide) and the diluent was 0.15 M naCl. Immediately prior to loading the sample chamber, the diluted samples were sonicated for 15 seconds to remove any gas nuclei.
The pressure drop across the air-water interface was measured during pulsation by a pressure transducer, and the corresponding surface tension determined through the application of Young's law and the Laplace equation. Measurements were all made at 37° C. and the bubble pulsed at 20 cycles/minute to render respectively a maximum (1.1 mm) and a minimum (0.8 mm) bubble diameter. (This compression/expansion corresponds to a 50% change in the surface area of the air-water interface).

[4] = Relative surface activity by dilution studies on modified Wilhelmy balance-Langmuir trough; details: criterion: minimum dynamic surface tension less than 5 dynes/cm for each of seven consecutive cycles; phospholipid 25 mg/ml, 675 ug applied
Protocol: For the purpose of this comparison "surface activity" is defined as follows: For any given peptide concentration, the admixture is required to result in a minimum dynamic surface tension of less than 5 dynes/cm for each of seven consecutive expansion/compression cycles.
The admixtures were diluted with the synthetic lipid mixture as described in Example 4, so as to maintain the lipid concentration in all cases at 25 mg/ml. For these studies a standard volume of 27 ul, corresponding to a total phospholipid mass of 675 ug, was applied to the Langmuir Trough with maximum dimensions of 445 sq. cm.

With “SP-B(30-60): synthesized SP-B peptide fragment, position 30-60 (AVAQVCRVVPLVAGGICQCLAERYSVILLDT; ends and bridges not checked; cysteine pairing not given here; UniProt P07988 230-260, looked up, fragment)” the “Surface tension, Maximum” value [1] was 52.0 dynes/cm, the “Surface tension, Minimum” value [1] was under 1 dynes/cm and the Adsorption [2] was 41.0 dynes/cm. For the same molecule, the “Minimum Surface Tension” value [3] was 16.9 ± 0.95 dyne/cm and the “Lowest Peptide (Protein) Concentration At Which Surface Active Criteria Are Met” value (“Lowest Peptide” below) [4] was 250.0 ug/ml and 76.7 uM.

For “SP-B(12-60): synthesized SP-B peptide fragment, position 12-60, 49 amino acids (RALIKRIQAMIPKGALAVAVAQVCRVVPLVAGGICQCLAERYSVILLDT; ends and bridges not checked; cysteine pairing not given here; UniProt P07988 212-260, looked up, fragment)”, the “Surface tension, Maximum” value [1] was 49.0 dynes/cm, the “Surface tension, Minimum” value [1] was under 1 dynes/cm and the Adsorption [2] was 41.0 dynes/cm. For the same molecule, the “Minimum Surface Tension” value [3] was 10.3 ± 0.67 dyne/cm and the “Lowest Peptide” value [4] was 30.0 ug/ml and 11.4 uM.

In the case of “SP-B(1-40): synthesized SP-B peptide fragment, position 1-40, 40 amino acids”, the “Surface tension, Maximum” value [1] is reported as 48.5 dynes/cm, the “Surface tension, Minimum” value [1] is reported as under 1 dynes/cm and the Adsorption [2] is reported as 42.5 dynes/cm. The “Minimum Surface Tension” value [3] was 7.1 ± 0.41 dyne/cm and the “Lowest Peptide” value [4] was 15.0 ug/ml and 3.3 uM.

For “SP-B(27-78): synthesized SP-B peptide fragment, position 27-78, 52 amino acids (LAVAVAQVCRVVPLVAGGICQCLAERYSVILLDTLLGRMLPQLVCRLVLRCS; ends and bridges not checked; cysteine pairing not given here; UniProt P07988 227-278, looked up, fragment)”, the “Surface tension, Maximum” value [1] was 49.5 dynes/cm, the “Surface tension, Minimum” value [1] was under 1 dynes/cm and the Adsorption [2] was 40.0 dynes/cm. For the same molecule, the “Minimum Surface Tension” value [3] was 4.7 ± 0.26 dyne/cm and the “Lowest Peptide” value [4] was 30.0 ug/ml and 5.3 uM.

For “SP-B(1-60): synthesized SP-B peptide fragment, position 1-60, 60 amino acids (FPIPLPYCWLCRALIKRIQAMIPKGALAVAVAQVCRVVPLVAGGICQCLAERYSVILLDT; ends and bridges not checked; cysteine pairing not given here; UniProt P07988 201-260, looked up, fragment)”, the “Surface tension, Maximum” value [1] was 47.5 dynes/cm, the “Surface tension, Minimum” value [1] was under 1 dynes/cm and the Adsorption [2] was 42.0 dynes/cm. For the same molecule, the “Minimum Surface Tension” value [3] was 7.2 ± 0.26 dyne/cm and the “Lowest Peptide” value [4] was 125.0 ug/ml and 18.9 uM.

B1: SP-B(1-78): replica of the entire 78 amino acid residue sequence of the native human SP-B protein (peptide, UniProt P07988 201-279, looked up)
Pulmonary …: FPIPLPYCWLCRALIKRIQAMIPKGALAVAVAQVCRVVPLVAGGICQCLAERYSVILLDTLLGRMLPQLVCRLVLRCSM
modifications: Pulmonary surfactant-associated protein B synthetic
For B1, the “Surface tension, Maximum” value [1] was 44.0 dynes/cm, the “Surface tension, Minimum” value [1] was under 1 dynes/cm and the Adsorption [2] was 37.5 dynes/cm. The “Minimum Surface Tension” value [3] was 4.0 ± 0.72 dyne/cm and the “Lowest Peptide” value [4] was 15.0 ug/ml and 1.7 uM.
